Results: US8067674B2, “Desaturase genes, enzymes encoded thereby, and uses thereof” (Abbott Laboratories, priority 2002, dated 2011)

System: fatty acid substrates
Assay: Yeast expression of the omega-3 desaturase (SDD17, sdd17 in pYX242) with exogenous fatty acid substrates, FAME/GC analysis
Assay type: cell-based, Saccharomyces cerevisiae (SC334)
Settings: for % Conversion: 24° C.
Source text: To determine the substrate specificity and the class of reaction catalyzed by the SDD17-protein, sdd17 was heterologously expressed in a Saccharomyces cerevisiae (SC334). Because S. cerevisiae cannot synthesize fatty acids beyond OA (18:1n-9), it is an ideal system to use to determine enzyme activity on substrates longer than OA because no background enzyme activity will be detected. Suitable fatty acid substrates can be exogenously supplied to the host which are taken up by the cell and acted on by the expressed protein of the transformed sdd17 gene.
Clone pRSP19, which contained the full-length omega-3 desaturase (sdd17) from S. diclina cloned into pYX242, was transformed into Saccharomyces cerevisiae (SC334) using the “Alkali-Cation Yeast Transformation”-brand kit (BIO 101, Vista, Calif.). Transformants were selected for leucine auxotrophy on media lacking leucine (DOB [-Leu]). To detect the specific desaturase activity of these clones, transformants were grown in the presence of 50 μM of each of LA (18:2n-6), GLA (18:3n-6),
DGLA (20:3n-6), AA (20:4n-6), and adrenic acid (22:4n-6). Conversion of these exogenously supplied fatty acid substrates into a product having one additional unsaturation indicates the presence of a specific desaturase activity that is not found in the wild-type S. cerevisiae:
The negative control strain was S. cerevisiae transformed with the pYX242 vector. The experimental cultures and the control cultures were grown simultaneously and analyzed.
The cultures were vigorously agitated (250 rpm) and grown for 48 hours at 24° C. in the presence of 50 μM (final concentration) of the various substrates (see Table 3). The cells were spun down, washed once in distilled water, and the pellets resuspended in methanol; chloroform was added along with tritridecanoin (as an internal standard). These mixtures were incubated for at least an hour at room temperature, or at 4° C. overnight. The chloroform layer was extracted and filtered through a Whatman filter with 1 gm anhydrous sodium sulfate to remove particulate matter and residual water. The organic solvents were evaporated at 40° C. under a stream of nitrogen. The extracted lipids were then converted to fatty acid methyl esters (FAME) for gas chromatography analysis (GC) by adding 2 ml 0.5 N potassium hydroxide in methanol to a closed tube. The samples were heated to 95° C.-100° C. for 30 minutes and cooled to room temperature. Approximately 2 ml 14% borontrifluoride in methanol was added and the heating repeated. After the extracted lipid mixture cooled, 2 ml of water and 1 ml of hexane were added to extract the FAME for analysis by GC. The percent conversion was calculated using the formula: […]
(i.e. 15° C.). Here, 50 μM of exogenous substrate was added to the transformants and the cultures were grown for 48 hours at 15° C. Fatty acid analysis was carried out as described above. The overall uptake of substrate by S. cerevisiae at 15° C. was lower than that seen at 24° C. (compare Table 3 & Table 4). However the percent conversion of substrate to product by the enzyme increased at 15° C. Since the presence of lower concentration of exogenous fatty acid substrate seemed to improve the activity of the enzyme, it is possible that fatty acid substrates at high concentrations may exert a feed-back inhibition on this enzyme. […]

B1: SDD17: omega-3 desaturase of 358 amino acid residues (SEQ ID NO: 26) encoded by sdd17 from Saprolegnia diclina (ATCC 56851) (protein, listed as Saprolegnia diclina)
chain: MTEDKTKVEFPTLTELKHSIPNACFESNLGLSLYYTARAIFNASASAALLYAARSTPFIADNVLLHALVCATYIYVQGVIFWGFFTVGHDCGHSAFSRYHSVNFIIGCIMHSAILTPFESWRVTHRHHHKNTGNIDKDEIFYPHRSVKDLQDVRQWVYTLGGAWFVYLKVGYAPRTMSHFDPWDPLLLRRASAVIVSLGVWAAFFAAYAYLTYSLGFAVMGLYYYAPLFVFASFLVITTFLHHNDEATPWYGDSEWTYVKGNLSSVDRSYGAFVDNLSHHIGTHQVHHLFPIIPHYKLNEATKHFAAAYPHLVRRNDEPIITAFFKTAHLFVNYGAVPETAQIFTLKESAAAAKAKSD
15° C. vs 24° C., 50 μM substrate, 48 hours
  percent conversion of substrate to product at 15° C. compared with 24° C.: increased
20:3 n-6 (DGLA) to 20:4 n-3 (ETA) (Delta 17), 48 hours, 50 μM substrate
  % Conversion: 5%
20:4 n-6 (AA) to 20:5 n-3 (EPA) (Delta 17), 48 hours, 50 μM substrate
  % Conversion: 13.8%
22:4 n-6 (adrenic acid) to 22:5 n-3 (DPA) (Delta 19), 48 hours, 50 μM substrate
  % Conversion: 4%
Under the conditions tested
  desaturation of C18 omega-6 fatty acyl substrates to their corresponding omega-3 fatty acids: did not desaturate
